Laboratory results: US5763271A, “Vasodilatory and immune suppressant peptides” (The President and Fellows of Harvard College, priority 1994, dated 1998)
Where no end group is shown, it is not given here.

B1: recombinant LP protein: LP protein, substantially the amino acid sequence of SEQ ID NO:4, expressed in E. coli as a polyHis fusion protein (protein)
chain: MKYSLNNLHFLVDVAEGCDATCQFRKAIEDCRKKAHHSDVLQTSVQTTATFTSMDTSQLPGSGVFKECMKEKAKEFKAGK
modifications: polyHis tag

Legend:
human macrophages = assay: H2O2 production by IFN-γ activated macrophages (scopoletin fluorometric assay); assay type: cell-based; conditions: 3 hrs preincubation, IFN-γ 200 units/ml, 3 days
Experimental: Monocytes obtained by leukophoresis of healthy volunteers were purified on Ficoll-hypaque and Percoll (Pharmacia, Piscataway, N.J.) gradients and placed into microtiter well (5×10^5 /well) in RPMI-1640 (GIBCO, Grand Island, N.Y.) with 5% pooled normal human serum and 1% gentamycin (M. A. Bioproducts, Walkinville, Md.). The cells were greater than 95% macrophages as judged by esterase staining. […] After one day in culture, non-adherent cells were rinsed away and the macrophages were treated, e.g., with human CGRP, Calcitonin, or LP as described below. Following treatment, the macrophages were incubated for three days with a concentration of from 100 to 400 units interferon gamma (Amgen Biologicals, Thousand Oaks, Calif.), in medium with 15% pooled normal human serum, at which time the H2 O2 concentration in the cells was determined.
H2 O2 production by macrophages was determined by fluorometric assay using the fluorophore scopoletin (de la Harpe et al., J. Immunol. Methods 78: 323 (1985)). […] The amount of H2 O2 released per culture is determined as nanomoles H2 O2. […]
Human macrophage monolayers were pretreated for three hours with varying concentrations of human CGRP. […] The amount Of H2 O2 produced by the cells was then determined according to the above procedure. […]

RAW 264.7 cell line = assay: Inhibition of nitric oxide production by LPS-stimulated macrophages (Greiss reaction); assay type: cell-based; conditions: 10^6 to 10^1 pg/ml; LPS 1 μg/ml; nitrite 2 hours later
Experimental: Macrophage cells from the RAW 264.7 cell line (Drapier et al. (1988) J. Immunol. 140:2829) were preincubated with various concentrations of LP protein as indicated in FIG. 8. The cells were then stimulated with 1 μg/ml lipopolysaccharide […] (LPS) and NO production was monitored 2 hours later by measuring nitrite in the supernatants of the cultures. Nitrite was measured by the method described in Ding et al. (1988) J. Immunol. 141:2407. Briefly, levels of nitrite in the supernatants of the cultures were assessed by the Greiss reaction as follows. 50 μl cell culture supernatants were mixed with 50 μl of Greiss reagent [1% sulfanilamide, 0.1% N-(1-naphthyl)ethyl-enediamine dihydrochloride in 2.5% phosphoric acid] and incubated at room temperature for 10 minutes. Absorbance was measured at 570 nm. Concentration of NO2 in the supernatant was determined by comparison to a standard curve generated with dilutions of NaNO2.

Leishmania major = assay: Exacerbation of cutaneous leishmaniasis (footpad lesion size); assay type: in vivo, CBA mice; conditions: 80 pg admixed with 10^5 L. major promastigotes, subcutaneous
Experimental: In order to assay for immunosuppressive activity, the recombinant LP protein described in subsection A above was tested for the ability to exacerbate infection of mice with Leishmania major substantially as described in Titus et al. (1988) Science 239, 1306 and Theodos et al. (1991) Infect. Immun. 59, 1592-1598.
Briefly, groups of 4 CBA mice each were injected subcutaneously in the footpad with 10^5 L. major promastigotes alone or 10^5 parasites admixed with 80 pg of LP protein. Lesion development was followed by measuring the increase in thickness of the injected footpad compared to the thickness of the contralateral uninjected control footpad.

Molecule | inhibition of H2O2 production by macrophages (human macrophages) | NO production by macrophages preincubated with the protein (RAW 264.7 cell line) | effect on Leishmania infection (size of footpad lesions) (Leishmania major)
calcitonin (CGNLSTCMLGTYTQDFNKFHTFPQTAIGVGAP; ends and bridges not checked; cysteine pairing not given here; UniProt P01258 85-116, looked up) [neuropeptide derived from the same gene as CGRP, available commercially] | to a degree similar to that seen with CGRP | – | –
B1 | – | significant decrease | greatly exacerbated
